Experiment [1] addresses FLT3 on the cell surface (human leukemia cell lines and patient cells) (human) (UniProt P36888). Briefly: flow cytometry, biotinylated antibody 10 ug/ml + Streptavidin-PE, THP-1 cells (AML).
The target is the same in experiment [2]. Briefly: flow cytometry, biotinylated antibody 10 ug/ml + Streptavidin-PE, SEM cells (B-ALL).
Experiment [3] has the same target. Description: flow cytometry, biotinylated antibody 10 ug/ml + Streptavidin-PE, REH cells (ALL).
For experiment [4] the target is unchanged. Briefly: flow cytometry, biotinylated antibody 10 ug/ml + Streptavidin-PE, SKM-1 cells (AML).
The target is the same in experiment [5]. Briefly: flow cytometry, biotinylated antibody 10 ug/ml + Streptavidin-PE, MOLM-13 cells (AML).
The target is the same in experiment [6]. Description: flow cytometry, biotinylated antibody 10 ug/ml + Streptavidin-PE, EOL-1 cells (AML).
Experiment [7] has the same target. Description: flow cytometry, biotinylated antibody 10 ug/ml + Streptavidin-PE, PL-21 cells (AML).
The target is the same in experiment [8]. Description: flow cytometry, biotinylated antibody 10 ug/ml + Streptavidin-PE, MV-4-11 cells (AML).
For experiment [9] the target is unchanged. Briefly: flow cytometry, biotinylated antibody 10 ug/ml + Streptavidin-PE, NALM-1 cells (CML).
The target is the same in experiment [10]. Description: flow cytometry, biotinylated antibody 10 ug/ml + Streptavidin-PE, OCI-AML2 cells (AML).
Experiment [11] has the same target. Description: flow cytometry, biotinylated antibody 10 ug/ml + Streptavidin-PE, RS4;11 cells (B-ALL).
Experiment [12] has the same target. Briefly: flow cytometry, biotinylated antibody 10 ug/ml + Streptavidin-PE, MONOMAC-1 cells (AML).
Experiment [13] deals with T1, FLT3 on the cell surface (human leukemia cell lines and patient cells) (human, UniProt P36888 27-993).
T1 construct: Endogenous or recombinant FLT3 on cells; also called Fms like tyrosine kinase 3 receptor; Flk2
Briefly: flow cytometry, biotinylated antibody 10 ug/ml + Streptavidin-PE, NALM-1 cells (CML). On the procedure:
(§1) CHv62.21 was tested for binding to AML and B-ALL cell lines grown in vitro. (See, Table VII). Briefly, CHv62.21 and an isotype matched control antibody were biotinylated using NHS LC biotin. In vitro, exponentially grown cancer cell lines were used for all experiments. Cells were harvested by and washed by centrifugation. Cells were Fc blocked to reduce non-specific binding. Antibodies were diluted to 10 ug/ml final concentration and co-incubated with cells at 4° C. for 1 hour. At the end of the incubation, cells were washed and incubated with secondary detection Streptavidin-PE antibody at a final 1:200 (2.5 ug/ml) dilution for 1 hour at 4° C. After washing un-bound secondary antibody, cells were analyzed by FACS and geometric mean fluorescence was determined and reported. Fluorescence ratio was calculated as follows: Geo mean cHv62.21/Geo mean isotype control=MFR, a measure of fold expression above isotype control.

Experiment [14] has as its target T1, FLT3 on the cell surface (human …). Briefly: flow cytometry, biotinylated antibody 10 ug/ml + Streptavidin-PE, PL-21 cells (AML). Here is the method: as §1
The target is the same in experiment [15]. Description: flow cytometry, biotinylated antibody 10 ug/ml + Streptavidin-PE, OCI-AML2 cells (AML). On the procedure:
as §1

For experiment [16] the target is unchanged. Briefly: flow cytometry, biotinylated antibody 10 ug/ml + Streptavidin-PE, MONOMAC-1 cells (AML). Here is the method:
as §1

Experiment [17] has the same target. Briefly: flow cytometry, biotinylated antibody 10 ug/ml + Streptavidin-PE, THP-1 cells (AML). On the procedure:
as §1

For experiment [18] the target is unchanged. Briefly: flow cytometry, biotinylated antibody 10 ug/ml + Streptavidin-PE, MOLM-13 cells (AML). On the procedure:
as §1

The target is the same in experiment [19]. Briefly: flow cytometry, biotinylated antibody 10 ug/ml + Streptavidin-PE, SKM-1 cells (AML). On the procedure:
as §1

For experiment [20] the target is unchanged. Briefly: flow cytometry, biotinylated antibody 10 ug/ml + Streptavidin-PE, MV-4-11 cells (AML). On the procedure:
as §1

For experiment [21] the target is unchanged. Briefly: flow cytometry, biotinylated antibody 10 ug/ml + Streptavidin-PE, RS4;11 cells (B-ALL). Here is the method: as §1
Experiment [22] has the same target. Description: flow cytometry, biotinylated antibody 10 ug/ml + Streptavidin-PE, EOL-1 cells (AML). Here is the method:
as §1

Experiment [23] shares this target. Description: flow cytometry, biotinylated antibody 10 ug/ml + Streptavidin-PE, REH cells (ALL). On the procedure: as §1
Experiment [24] shares this target. Briefly: flow cytometry, biotinylated antibody 10 ug/ml + Streptavidin-PE, SEM cells (B-ALL). Here is the method:
as §1

FLT3 on the cell surface (human leukemia cell lines and patient cells) (human), sequence (P36888 27-993 T227M limits assumed): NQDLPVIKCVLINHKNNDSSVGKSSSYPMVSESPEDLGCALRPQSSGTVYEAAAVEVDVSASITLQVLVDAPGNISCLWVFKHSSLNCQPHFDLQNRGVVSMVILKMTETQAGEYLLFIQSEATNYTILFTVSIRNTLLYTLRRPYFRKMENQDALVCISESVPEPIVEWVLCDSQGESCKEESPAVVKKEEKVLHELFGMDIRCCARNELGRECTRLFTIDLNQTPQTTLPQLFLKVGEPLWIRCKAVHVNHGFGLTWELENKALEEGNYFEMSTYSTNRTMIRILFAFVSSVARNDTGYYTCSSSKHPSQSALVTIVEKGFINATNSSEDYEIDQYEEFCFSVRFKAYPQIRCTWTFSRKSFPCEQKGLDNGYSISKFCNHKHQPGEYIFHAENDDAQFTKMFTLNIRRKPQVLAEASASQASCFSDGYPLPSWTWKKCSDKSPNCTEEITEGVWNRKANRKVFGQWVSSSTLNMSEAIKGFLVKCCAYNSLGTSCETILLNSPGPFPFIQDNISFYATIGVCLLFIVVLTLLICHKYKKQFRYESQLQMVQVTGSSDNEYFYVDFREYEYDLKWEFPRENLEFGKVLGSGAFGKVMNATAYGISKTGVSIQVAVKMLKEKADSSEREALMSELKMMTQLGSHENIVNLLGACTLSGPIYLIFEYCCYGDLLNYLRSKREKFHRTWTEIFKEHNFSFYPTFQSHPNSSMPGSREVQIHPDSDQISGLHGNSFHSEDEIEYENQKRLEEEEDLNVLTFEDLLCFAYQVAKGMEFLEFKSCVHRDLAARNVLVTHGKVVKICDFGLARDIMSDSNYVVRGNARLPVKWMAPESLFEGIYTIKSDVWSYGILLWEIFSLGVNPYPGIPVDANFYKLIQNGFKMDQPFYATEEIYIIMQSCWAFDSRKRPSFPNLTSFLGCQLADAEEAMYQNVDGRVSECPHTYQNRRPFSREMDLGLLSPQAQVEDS
T1 sequence (P36888 27-993 T227M limits assumed): as above

For “isotype matched control antibody (Table VI)”, the Geometric Mean fluorescence in [1] stood at 474; in experiment [2], 212; in [3], 235; in experiment [4], 445; in experiment [5], 320; in experiment [6], 281. Besides, the Geometric Mean fluorescence amounted to 570 in [7]; 366 in experiment [8]; 262 in [9]; 329 in [10]; 213 in [11]; 338 in [12].

B1: CHv62.21 MAb (antibody, human IgG1, kappa, V domains shown)
VH: EVQLVESGGGLVRPGGSLRLSCAASGFTFSGYSINWVRQAPGKGLEWVSSISSSSNYIYYADSVKGRFTISRDNAKNSLYLQMNSLRAEDTAVYYCAREGFIAGTTFDAFDIWGQGTMVTVSS
VL: DIQMTQSPSSLSASVGDRVTITCRASQGIRNDLGWYQQKPGKAPKRLIYAASSLQSGVPSRFSGSGSGTEFTLTISSLQPEDFATYYCLQHNGFPYTFGQGTKLEIKR
notes: also called cHv62-1b21.1
On to B1, for which the “MFR (Geo mean cHv62.21/Geo mean isotype control)” value came out at 49 fold in [13]; 7 fold in [14]; 17 fold in experiment [15]; 34 fold in experiment [16]; 42 fold in experiment [17]; 44 fold in experiment [18]. The “MFR (Geo mean cHv62.21/Geo mean isotype control)” value was 7 fold in [19]; 8 fold in [20]; 86 fold in [21]; 50 fold in experiment [22]; 69 fold in experiment [23]; 623 fold in [24].

For the origin of these results see US20180037657A1 (AGENSYS, published 2018).
